Measurements as given in the supplement of paper PMC9876800.

Tested on: peptide library, one residue held at a place counted from the S/T acceptor
Assay: relative phosphorylation of the sub-library (ratio to the mean residue at this position); higher = residue favoured
Details: human
Summary of the method: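 Purified recombinant kinases were reacted in 384-well plates with biotinylated degenerate peptide sub-libraries, each having one residue fixed at one position around a central Ser/Thr. The reaction mix contained 50 μM peptide plus 50 μM ATP spiked with γ-32P-ATP and ran for 90 min under kinase-specific conditions. Relative sub-library phosphorylation, taken from densitometry of phosphorimaged streptavidin membrane spots, is a ratio to the mean residue at that position.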

MAP4K2, construct: Full length, sequence (Q12851 whole entry, looked up): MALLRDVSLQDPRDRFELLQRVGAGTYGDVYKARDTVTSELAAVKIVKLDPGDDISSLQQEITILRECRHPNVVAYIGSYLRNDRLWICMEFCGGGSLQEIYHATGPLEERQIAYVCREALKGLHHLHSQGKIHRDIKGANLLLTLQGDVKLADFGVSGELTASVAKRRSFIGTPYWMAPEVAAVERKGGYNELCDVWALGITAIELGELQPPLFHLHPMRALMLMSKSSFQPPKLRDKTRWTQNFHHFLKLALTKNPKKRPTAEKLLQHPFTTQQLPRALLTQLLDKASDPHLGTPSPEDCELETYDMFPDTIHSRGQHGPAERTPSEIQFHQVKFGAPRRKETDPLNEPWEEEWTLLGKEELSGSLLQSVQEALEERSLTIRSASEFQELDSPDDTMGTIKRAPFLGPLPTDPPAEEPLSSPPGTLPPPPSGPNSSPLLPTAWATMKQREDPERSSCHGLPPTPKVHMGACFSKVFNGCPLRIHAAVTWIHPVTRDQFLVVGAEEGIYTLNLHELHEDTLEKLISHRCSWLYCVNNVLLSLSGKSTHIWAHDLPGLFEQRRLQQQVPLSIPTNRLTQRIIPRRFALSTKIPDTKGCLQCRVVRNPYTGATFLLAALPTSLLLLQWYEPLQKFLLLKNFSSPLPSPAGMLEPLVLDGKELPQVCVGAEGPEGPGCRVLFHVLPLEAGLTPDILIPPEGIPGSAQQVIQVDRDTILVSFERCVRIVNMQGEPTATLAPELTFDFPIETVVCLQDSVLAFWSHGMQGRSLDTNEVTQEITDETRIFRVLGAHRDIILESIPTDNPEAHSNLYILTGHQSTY
CAMKK1, construct: aa124-411, sequence (Q8N5S9 124-411, looked up): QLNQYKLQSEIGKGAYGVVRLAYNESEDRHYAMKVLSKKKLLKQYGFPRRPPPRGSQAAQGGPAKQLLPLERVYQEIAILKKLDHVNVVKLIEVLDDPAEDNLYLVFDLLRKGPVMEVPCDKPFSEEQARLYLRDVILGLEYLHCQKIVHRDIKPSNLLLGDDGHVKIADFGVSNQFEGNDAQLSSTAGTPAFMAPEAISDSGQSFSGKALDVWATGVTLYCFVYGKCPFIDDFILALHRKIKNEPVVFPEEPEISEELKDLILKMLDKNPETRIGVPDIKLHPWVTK
MAP3K8, construct: aa30-397, sequence (P41279 30-397, looked up): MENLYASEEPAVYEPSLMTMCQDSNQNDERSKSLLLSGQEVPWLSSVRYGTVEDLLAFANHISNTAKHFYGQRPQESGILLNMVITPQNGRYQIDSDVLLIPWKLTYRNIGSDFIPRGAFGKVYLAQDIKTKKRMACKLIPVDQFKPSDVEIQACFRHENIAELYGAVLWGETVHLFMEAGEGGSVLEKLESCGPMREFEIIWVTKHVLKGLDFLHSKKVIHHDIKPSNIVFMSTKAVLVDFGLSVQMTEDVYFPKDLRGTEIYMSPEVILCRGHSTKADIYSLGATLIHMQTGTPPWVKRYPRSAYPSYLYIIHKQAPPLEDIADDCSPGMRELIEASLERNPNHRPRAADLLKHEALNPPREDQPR
FAM20C, construct: aa23-end, sequence (Q8IXL6 23-584, looked up): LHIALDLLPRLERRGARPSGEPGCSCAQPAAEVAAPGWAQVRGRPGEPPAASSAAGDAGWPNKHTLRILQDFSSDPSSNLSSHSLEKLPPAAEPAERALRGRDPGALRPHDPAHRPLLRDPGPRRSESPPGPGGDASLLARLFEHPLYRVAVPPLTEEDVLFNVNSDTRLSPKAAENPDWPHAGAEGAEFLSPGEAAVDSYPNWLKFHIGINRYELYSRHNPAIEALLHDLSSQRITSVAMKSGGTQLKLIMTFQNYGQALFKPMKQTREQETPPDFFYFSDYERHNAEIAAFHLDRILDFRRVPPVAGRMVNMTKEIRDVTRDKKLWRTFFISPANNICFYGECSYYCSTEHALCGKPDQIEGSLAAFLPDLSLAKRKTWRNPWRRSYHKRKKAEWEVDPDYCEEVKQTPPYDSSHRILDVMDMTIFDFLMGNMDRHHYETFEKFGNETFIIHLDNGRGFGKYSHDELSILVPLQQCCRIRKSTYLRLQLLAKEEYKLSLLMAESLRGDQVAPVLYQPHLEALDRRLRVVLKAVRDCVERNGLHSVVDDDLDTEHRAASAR

FAM20C, construct: aa23-end (from UniProt Q8IXL6)
relative phosphorylation
Details | at +1 | at +2 | at +3 | at +4 | at -1 | at -2 | at -3 | at -4 | at -5
A fixed | 1.77 | 0.243 | 0.795 | 0.935 | 1.27 | 1.28 | 0.91 | 1.14 | 1.14
D fixed | 1.03 | 0.708 | 2.21 | 1.67 | 2.77 | 1.99 | 1.61 | 1.68 | 1.46
E fixed | 2.15 | 13 | 2.58 | 1.91 | 1.4 | 1.19 | 1.66 | 1.52 | 1.31
F fixed | 0.537 | 0.173 | 0.624 | 0.825 | 0.423 | 0.95 | 0.693 | 0.737 | 1.04
G fixed | 1.61 | 0.214 | 0.518 | 1.45 | 1.31 | 1.28 | 1.45 | 1.26 | 1.05
H fixed | 1.39 | 0.25 | 0.863 | 0.874 | 1.29 | 1.08 | 0.95 | 1.02 | 1.43
I fixed | 0.52 | 0.155 | 1.13 | 1.02 | 0.468 | 0.663 | 0.619 | 0.789 | 0.751
K fixed | 0.822 | 0.185 | 0.516 | 0.607 | 0.589 | 0.647 | 0.719 | 0.745 | 0.896
L fixed | 0.54 | 0.159 | 1.07 | 0.788 | 0.485 | 0.581 | 0.968 | 0.826 | 0.832
M fixed | 1.11 | 0.205 | 0.884 | 0.92 | 0.555 | 0.673 | 0.851 | 0.887 | 0.761
N fixed | 1.08 | 0.277 | 0.845 | 0.806 | 2.19 | 1.8 | 1.2 | 1.08 | 1.14
P fixed | 0.253 | 0.18 | 0.252 | 0.777 | 0.303 | 1.11 | 1.01 | 1.06 | 0.843
Q fixed | 1.26 | 0.454 | 1.17 | 0.863 | 0.934 | 0.809 | 1.07 | 0.997 | 0.907
R fixed | 0.958 | 0.2 | 0.603 | 0.571 | 0.685 | 0.612 | 0.918 | 0.75 | 0.809
V fixed | 0.618 | 0.179 | 1.36 | 1.02 | 0.808 | 0.701 | 0.682 | 0.876 | 0.959
W fixed | 0.696 | 0.208 | 0.831 | 1.05 | 0.839 | 0.795 | 0.861 | 0.895 | 1.01
Y fixed | 0.65 | 0.199 | 0.76 | 0.913 | 0.681 | 0.851 | 0.835 | 0.736 | 0.66
pThr fixed | 0.641 | 0.744 | 1.28 | 3.06 | 0.797 | 1.09 | 1.49 | 1.38 | 1.05
pTyr fixed | 0.699 | 1.02 | 2.15 | 2.74 | 1.08 | 1.96 | 1.64 | 1.1 | 1.19

MAP3K8, construct: aa30-397 (from UniProt P41279)
relative phosphorylation
Details | at +1 | at +2 | at +3 | at +4 | at -1 | at -2 | at -3 | at -4 | at -5
A fixed | 0.997 | 0.962 | 0.971 | 1.12 | 0.924 | 0.801 | 0.815 | 1.17 | 1.27
D fixed | 0.537 | 0.83 | 0.819 | 1.27 | 1.65 | 2 | 1.57 | 1.62 | 1.47
E fixed | 0.66 | 1.12 | 0.961 | 1.44 | 1.2 | 1.5 | 1.62 | 1.51 | 1.27
F fixed | 1.1 | 0.338 | 0.599 | 0.523 | 0.449 | 0.976 | 0.535 | 0.489 | 0.575
G fixed | 1.23 | 0.736 | 1.2 | 1.09 | 1.31 | 1.23 | 1.36 | 1.51 | 1.41
H fixed | 0.869 | 1.17 | 0.465 | 0.83 | 1.16 | 1.18 | 1.16 | 1.16 | 1.33
I fixed | 0.847 | 0.952 | 0.832 | 0.655 | 0.336 | 0.554 | 0.382 | 0.479 | 0.435
K fixed | 1.31 | 1.61 | 1.57 | 1.4 | 1.37 | 0.653 | 1.08 | 1.11 | 1.47
L fixed | 0.9 | 0.938 | 1.22 | 0.771 | 0.746 | 0.816 | 0.59 | 0.55 | 0.576
M fixed | 1.29 | 0.697 | 1.09 | 0.877 | 0.572 | 0.789 | 0.595 | 0.676 | 0.499
N fixed | 0.996 | 1.67 | 1.03 | 0.997 | 1.5 | 1.35 | 1.32 | 1.35 | 1.25
P fixed | 0.299 | 0.499 | 0.522 | 1.72 | 1.11 | 0.927 | 1.52 | 1.32 | 1.31
Q fixed | 1.36 | 1.9 | 1.21 | 1.09 | 1.28 | 0.913 | 1.16 | 1.01 | 0.943
R fixed | 1.31 | 1.5 | 1.73 | 1.02 | 1.41 | 0.717 | 1.15 | 1.05 | 1.08
V fixed | 1.07 | 1.25 | 0.992 | 0.809 | 0.601 | 0.519 | 0.446 | 0.536 | 0.694
W fixed | 0.806 | 0.382 | 0.78 | 0.689 | 0.591 | 0.805 | 0.835 | 0.707 | 0.834
Y fixed | 1.41 | 0.438 | 1.01 | 0.688 | 0.782 | 1.28 | 0.856 | 0.761 | 0.575
pThr fixed | 1.64 | 1.48 | 0.934 | 1.43 | 1.44 | 1.43 | 1.5 | 1.4 | 1.1
pTyr fixed | 0.716 | 1.83 | 1.08 | 1.17 | 1.51 | 0.871 | 1.49 | 0.882 | 1.1

CAMKK1, construct: aa124-411 (from UniProt Q8N5S9)
relative phosphorylation
Details | at +1 | at +2 | at +3 | at +4 | at -1 | at -2 | at -3 | at -4 | at -5
A fixed | 0.901 | 0.973 | 0.903 | 0.897 | 1.05 | 0.46 | 1.22 | 1.1 | 1.33
D fixed | 0.614 | 0.968 | 0.958 | 1.06 | 1.05 | 0.445 | 0.426 | 1.26 | 1.18
E fixed | 0.644 | 0.723 | 0.891 | 1.05 | 1.31 | 0.348 | 0.461 | 1.18 | 1.06
F fixed | 0.858 | 0.802 | 0.751 | 0.774 | 0.629 | 1.59 | 1.36 | 1.02 | 0.853
G fixed | 0.83 | 0.897 | 1.14 | 1.2 | 0.7 | 0.458 | 0.757 | 1.18 | 1.32
H fixed | 1.31 | 1.44 | 1.24 | 1.12 | 1.06 | 0.949 | 1.12 | 1.06 | 1.05
I fixed | 1.06 | 0.725 | 0.597 | 0.612 | 0.645 | 0.756 | 1.18 | 0.675 | 0.687
K fixed | 0.907 | 0.997 | 1.27 | 1.18 | 1.05 | 0.463 | 0.443 | 0.806 | 1.18
L fixed | 1.12 | 0.703 | 0.657 | 0.76 | 1.14 | 2.71 | 1.29 | 0.811 | 0.605
M fixed | 1.37 | 0.901 | 0.797 | 0.845 | 1.27 | 2.52 | 2.16 | 0.82 | 0.901
N fixed | 1.21 | 1.11 | 1.2 | 1.25 | 1.21 | 0.811 | 0.832 | 1.03 | 1.04
P fixed | 0.157 | 0.927 | 1.2 | 1.29 | 0.192 | 0.229 | 1.05 | 0.96 | 1.21
Q fixed | 1.33 | 1.08 | 1.15 | 1.14 | 1.51 | 0.696 | 0.872 | 0.955 | 0.863
R fixed | 1.31 | 1.57 | 1.49 | 1.23 | 1.75 | 0.633 | 0.583 | 0.791 | 1.13
V fixed | 1.06 | 0.865 | 0.702 | 0.628 | 0.696 | 0.594 | 1.04 | 0.83 | 0.786
W fixed | 1.01 | 0.968 | 0.975 | 1.13 | 0.718 | 0.668 | 1.03 | 1.59 | 0.906
Y fixed | 1.31 | 1.36 | 1.08 | 0.848 | 1.02 | 2.67 | 1.18 | 0.926 | 0.903
pThr fixed | 0.793 | 0.982 | 0.885 | 0.852 | 0.508 | 0.624 | 0.842 | 0.969 | 0.9
pTyr fixed | 0.907 | 0.947 | 1.01 | 0.925 | 1.28 | 0.668 | 0.726 | 0.838 | 0.979

MAP4K2, construct: Full length (from UniProt Q12851)
relative phosphorylation
Details | at +1 | at +2 | at +3 | at +4 | at -1 | at -2 | at -3 | at -4 | at -5
A fixed | 0.468 | 0.739 | 0.703 | 0.786 | 0.858 | 1.1 | 0.767 | 0.881 | 0.946
D fixed | 0.266 | 0.979 | 0.592 | 0.804 | 0.927 | 0.912 | 0.852 | 1.09 | 1.01
E fixed | 0.259 | 0.759 | 0.52 | 0.815 | 0.595 | 0.575 | 0.769 | 1.03 | 0.889
F fixed | 1.07 | 0.58 | 0.762 | 0.866 | 0.722 | 1.27 | 0.852 | 1.09 | 1.12
G fixed | 0.742 | 0.986 | 0.999 | 1.07 | 1.61 | 1.19 | 1.45 | 1.37 | 1.26
H fixed | 0.576 | 1.03 | 1.1 | 1.06 | 1.17 | 1.29 | 1.09 | 0.999 | 1.07
I fixed | 1.6 | 0.396 | 0.506 | 0.662 | 0.251 | 0.574 | 0.457 | 0.596 | 0.629
K fixed | 0.519 | 2.31 | 2.03 | 1.65 | 1.48 | 0.754 | 1.69 | 1.05 | 1.18
L fixed | 3.02 | 0.649 | 0.694 | 0.82 | 0.868 | 0.634 | 0.558 | 0.688 | 0.662
M fixed | 3.03 | 0.78 | 0.773 | 0.938 | 1.03 | 0.778 | 0.706 | 0.852 | 0.858
N fixed | 0.852 | 1.24 | 1.26 | 1.2 | 1.88 | 1.14 | 1.28 | 0.955 | 0.971
P fixed | 0.398 | 1.21 | 1.29 | 1.03 | 0.954 | 1.09 | 1.3 | 1.38 | 1.12
Q fixed | 0.581 | 1.11 | 0.996 | 1.22 | 1.09 | 0.908 | 1.05 | 0.921 | 0.834
R fixed | 0.55 | 2.4 | 2.41 | 1.41 | 1.43 | 1.01 | 1.51 | 1.12 | 1.24
V fixed | 0.749 | 0.486 | 0.583 | 0.665 | 0.311 | 0.66 | 0.438 | 0.596 | 0.765
W fixed | 1.43 | 0.652 | 1 | 1.15 | 0.765 | 1.38 | 1.19 | 1.29 | 1.28
Y fixed | 0.892 | 0.689 | 0.783 | 0.866 | 1.05 | 1.75 | 1.04 | 1.1 | 1.16
pThr fixed | 1.48 | 1.36 | 1.3 | 0.836 | 0.698 | 1.24 | 1.13 | 1.2 | 1.27
pTyr fixed | 0.518 | 0.636 | 0.953 | 0.756 | 0.759 | 0.98 | 1.08 | 1.11 | 1.15
